From patent publication US20230257457A1 (published 2023) come the findings set out here.

The target in this test is T1, thioredoxin (Escherichia coli (strain K12), UniProt P0AA25 2-109 = thioredoxin).
T1 construct: Negative control antigen; also called Trx; TrxA
As to the kind of experiment: ELISA (FIG. 64). For orientation: In an ELISA, binding on a coated surface is turned into a signal by an enzyme label.

T1 sequence (P0AA25 2-109 limits assumed): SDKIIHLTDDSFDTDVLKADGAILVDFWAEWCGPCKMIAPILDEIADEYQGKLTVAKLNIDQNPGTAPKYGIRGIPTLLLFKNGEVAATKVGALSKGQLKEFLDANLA

B1: mouse human chimeric anti-R273H p53 antibody clone MH 13E4 (antibody, human IgG1, V domains shown)
VH: EVQLLETGGDLVTPGGSLKLSCAASGFSFSDYYMYWVRQTPEKRLEWVATISVGGTYTFYSDNVKGRFVISRDNARKNLHLEMNSLKSEDAAMYYCVRDGNDGKFLGYWGQGTFVTVTV
VL: DIVMTQSPLSLPVNLGDQVSLSCRSSQSIVHNNGDTYLEWYLQKPGQSPKLLIYKVSNRFSGVPDRFSGSGSGTDFTLKISRVEAEDLGIYYCFQGSHLPLTFGSGTKLELK
notes: Mouse Fv with human IgG1 constant region; also called chimeric 13E4
Turning to B1, the binding result is given as “no binding (tested: 1 ng/µl)”.
